Source: patent US11175289B2, “Application of TRPM8 protein, related peptide fragment and their antibodies” (priority 2016, dated 2021)
“Also recorded” adds a separate entry of the source.

What was measured:
[1] = system: prostate tissue of SD rats; test: CP/CPPS animal model by immunization with antigen plus CFA; HE staining and pathological score of prostate; format: in vivo, rat
Excerpt: (§1) Experiment is designed and performed as follows. Firstly, pure TRPM8 protein is combined with Complete Freund's adjuvant (CFA) to establish an animal model of CP/CPPS. The animal model is compared with a prostatein homogenate modeling method. Meanwhile, TRPM8 in prostatein homogenate is removed by immunomagnetic beads; wherein the prostatein homogenate is molded for serving as a negative control. HE staining method is utilized to evaluate the severity of inflammation in prostate tissue of each modeling group of animal, and the severity of inflammation in prostate tissue is performed with pathological score. CD3 immunofluorescence method is adopted to observe infiltrating of T lymphocyte in prostate of the modeling animal.
Take 40 8-week-old SPF level male SD rats, with weights at a range of 250±20 g. The rats are purchased from Shanghai Sijie laboratory Co., Ltd with a license number of SCXK (Shanghai) 2012-0006. Under an aseptic condition, prostate of an SD rats is taken to prepare prostatein homogenate and TRPM8 removed homogenate protein. Grouping of immune animals in experiments is as follows. 40 8-week-old SD rats are randomly classified into 4 groups, i.e., a homogenate protein group, a TRPM8 removed homogenate protein group, a pure TRPM8 protein group and a control group; wherein each group comprises 10 rats. After 8 weeks of immune, each group of the rats are injected with 10% chloral hydrate on abdomen for anesthesia, and plasma and prostate of each group of rats are respectively collected. Preparation of prostate pathological section: the paraffin embedded prostate sections of the rats in each experimental group are sent to a drying oven, heated under 60° C. for 30 min. […]
According to HE staining result, prostatitis degree of each group of rats are pathologically scored under standards as follows. […]
Each prostate section is scored by three associate professors in pathology according to the standards mentioned above under a randomized and double-blind principle, and an average value calculated is a histological score indicating degree of the prostatitis of the animal. […]

[2] = system: T lymphocyte in prostate of the modeling animal; test: CD3 immunofluorescence staining of prostate tissue; format: in vivo, rat; details: SD rats immunized with antigen combined with CFA
Excerpt: as §1
In addition, the prostate tissue sections of each group of animals to be tested are taken, baked in an oven for 30 minutes at 60° C., then subjected to CD3 immunofluorescence, and finally added with anti-fluorescence quenching agent for sealing, observed under a microscope, wherein photos are taken.
In order to improve the inflammatory cell containing a plurality of T-lymphocytes, the CD3 molecules are performed with immunofluorescence staining. The results are shown in FIG. 3: A: control blank group; B: protein homogenate group; C: pure TRPM8 protein group; D: TRPM8 protein free homogenate group.

B1: TRPM8 protein: TRPM8 protein purchased from ProteinTech Group; combined with CFA to immunize SD rats (protein)
chain: MSFRAARLSMRNRRNDTLDSTRTLYSSASRSTDLSYSESDLVNFIQANFKKRECVFFTKDSKATENVCKCGYAQSQHMEGTQINQSEKWNYKKHTKEFPTDAFGDIQFETLGKKGKYIRLSCDTDAEILYELLTQHWHLKTPNLVISVTGGAKNFALKPRMRKIFSRLIYIAQSKGAWILTGGTHYGLMKYIGEVVRDNTISRSSEENIVAIGIAAWGMVSNRDTLIRNCDAEGYFLAQYLMDDFTRDPLYILDNNHTHLLLVDNGCHGHPTVEAKLRNQLEKYISERTIQDSNYGGKIPIVCFAQGGGKETLKAINTSIKNKIPCVVVEGSGQIADVIASLVEVEDALTSSAVKEKLVRFLPRTVSRLPEEETESWIKWLKEILECSHLLTVIKMEEAGDEIVSNAISYALYKAFSTSEQDKDNWNGQLKLLLEWNQLDLANDEIFTNDRRWESADLQEVMFTALIKDRPKFVRLFLENGLNLRKFLTHDVLTELFSNHFSTLVYRNLQIAKNSYNDALLTFVWKLVANFRRGFRKEDRNGRDEMDIELHDVSPITRHPLQALFIWAILQNKKELSKVIWEQTRGCTLAALGASKLLKTLAKVKNDINAAGESEELANEYETRAVELFTECYSSDEDLAEQLLVYSCEAWGGSNCLELAVEATDQHFIAQPGVQNFLSKQWYGEISRDTKNWKIILCLFIIPLVGCGFVSFRKKPVDKHKKLLWYYVAFFTSPFVVFSWNVVFYIAFLLLFAYVLLMDFHSVPHPPELVLYSLVFVLFCDEVRQWYVNGVNYFTDLWNVMDTLGLFYFIAGIVFRLHSSNKSSLYSGRVIFCLDYIIFTLRLIHIFTVSRNLGPKIIMLQRMLIDVFFFLFLFAVWMVAFGVARQGILRQNEQRWRWIFRSVIYEPYLAMFGQVPSDVDGTTYDFAHCTFTGNESKPLCVELDEHNLPRFPEWITIPLVCIYMLSTNILLVNLLVAMFGYTVGTVQENNDQVWKFQRYFLVQEYCSRLNIPFPFIVFAYFYMVVKKCFKCCCKEKNMESSVCCFKNEDNETLAWEGVMKENYLVKINTKANDTSEEMRHRFRQLDTKLNDLKGLLKEIANKIK
pathogenicity causing CP/CPPS ([1]; SD rats immunized with antigen): successfully induces generation of CP/CPPS; also recorded: strong pathogenicity causing CP/CPPS | inflammatory cell infiltration in prostate (HE staining) ([1]; SD rats immunized with antigen combined with CFA, 8 weeks): a plurality of inflammatory cell infiltration | histological score (pathological evaluation of prostatitis degree) ([1]; SD rats immunized with antigen combined with CFA, 8 weeks, score 0-3, M±SD): 2.7000±0.4830 | CD3 immunofluorescence staining of prostate stromal [2]: A large area of CD3 molecule marked by red luminescence
